target: T1, human immunoglobulin E (hIgE) (human, UniProt P01854-1 1-428); test: SPR (Biacore) on hIgE
T1 construct: also called human IgE; Native IgE (Abcam)
T1 sequence (P01854 whole entry): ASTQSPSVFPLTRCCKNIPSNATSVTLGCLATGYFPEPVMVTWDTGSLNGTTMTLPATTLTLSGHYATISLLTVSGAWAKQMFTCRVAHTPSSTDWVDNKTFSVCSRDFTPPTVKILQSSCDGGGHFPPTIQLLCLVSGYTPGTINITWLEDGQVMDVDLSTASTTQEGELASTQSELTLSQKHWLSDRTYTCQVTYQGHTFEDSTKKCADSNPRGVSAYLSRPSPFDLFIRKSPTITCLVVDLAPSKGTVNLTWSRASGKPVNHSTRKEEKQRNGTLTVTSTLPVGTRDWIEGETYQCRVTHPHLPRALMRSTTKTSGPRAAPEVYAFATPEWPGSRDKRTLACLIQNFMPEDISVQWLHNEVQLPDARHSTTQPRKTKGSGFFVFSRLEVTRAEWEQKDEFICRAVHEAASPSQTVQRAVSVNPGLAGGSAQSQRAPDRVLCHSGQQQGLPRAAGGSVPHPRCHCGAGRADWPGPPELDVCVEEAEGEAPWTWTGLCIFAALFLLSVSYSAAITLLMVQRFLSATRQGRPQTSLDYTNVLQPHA
Experimental: The ratio of KD measured at pH 5.5 versus KD measured at pH 7.4 was calculated for each of the CL-2C antibodies.

Binder | KD Ratio pH 5.5/pH 7.4
CL-2C mAb 1 (antibody, V domains shown, also called CL-20 mAb 1; VK28H94H + VH58H100BH) VH: QVQLVQSGAEVMKPGSSVKVSCKASGYTFSWYWLEWVRQAPGHGLEWMGEIDPGTFTTHYNEKFKARVTFTADTSTSTAYMELSSLRSEDTAVYYCARFSHFSGSHYDYFDYWGQGTLVTVSS VL: EIVMTQSPATLSVSPGERATLSCRASQHIGTNIHWYQQKPGQAPRLLIYYASESISGIPARFSGSGSGTEFTLTISSLQSEDFAVYYCQQSWSHPTTFGGGTKVEIK | 4.6
CL-2C mAb 16 (antibody, V domains shown, also called VK50H92D94H + VH58H100BH) VH: QVQLVQSGAEVMKPGSSVKVSCKASGYTFSWYWLEWVRQAPGHGLEWMGEIDPGTFTTHYNEKFKARVTFTADTSTSTAYMELSSLRSEDTAVYYCARFSHFSGSHYDYFDYWGQGTLVTVSS VL: EIVMTQSPATLSVSPGERATLSCRASQSIGTNIHWYQQKPGQAPRLLIYHASESISGIPARFSGSGSGTEFTLTISSLQSEDFAVYYCQQSDSHPTTFGGGTKVEIK | 4.7
CL-2C mAb 17 (antibody, V domains shown, also called VK50H92D94H + VH33H100CH) VH: QVQLVQSGAEVMKPGSSVKVSCKASGYTFSWYHLEWVRQAPGHGLEWMGEIDPGTFTTNYNEKFKARVTFTADTSTSTAYMELSSLRSEDTAVYYCARFSHFSGSNHDYFDYWGQGTLVTVSS VL: EIVMTQSPATLSVSPGERATLSCRASQSIGTNIHWYQQKPGQAPRLLIYHASESISGIPARFSGSGSGTEFTLTISSLQSEDFAVYYCQQSDSHPTTFGGGTKVEIK | 7.1
CL-2C mAb 15 (antibody, V domains shown, also called VK50H94H + VHWT) VH: QVQLVQSGAEVMKPGSSVKVSCKASGYTFSWYWLEWVRQAPGHGLEWMGEIDPGTFTTNYNEKFKARVTFTADTSTSTAYMELSSLRSEDTAVYYCARFSHFSGSNYDYFDYWGQGTLVTVSS VL: EIVMTQSPATLSVSPGERATLSCRASQSIGTNIHWYQQKPGQAPRLLIYHASESISGIPARFSGSGSGTEFTLTISSLQSEDFAVYYCQQSWSHPTTFGGGTKVEIK | 1.1
CL-2C mAb 3 (antibody, V domains shown, also called VK28H94H + VH33H100BH) VH: QVQLVQSGAEVMKPGSSVKVSCKASGYTFSWYHLEWVRQAPGHGLEWMGEIDPGTFTTNYNEKFKARVTFTADTSTSTAYMELSSLRSEDTAVYYCARFSHFSGSHYDYFDYWGQGTLVTVSS VL: EIVMTQSPATLSVSPGERATLSCRASQHIGTNIHWYQQKPGQAPRLLIYYASESISGIPARFSGSGSGTEFTLTISSLQSEDFAVYYCQQSWSHPTTFGGGTKVEIK | 8.4
CL-2C mAb 2 (antibody, V domains shown, also called CL-20 mAb 2; VK28H94H + VH33H100CH) VH: QVQLVQSGAEVMKPGSSVKVSCKASGYTFSWYHLEWVRQAPGHGLEWMGEIDPGTFTTNYNEKFKARVTFTADTSTSTAYMELSSLRSEDTAVYYCARFSHFSGSNHDYFDYWGQGTLVTVSS VL: EIVMTQSPATLSVSPGERATLSCRASQHIGTNIHWYQQKPGQAPRLLIYYASESISGIPARFSGSGSGTEFTLTISSLQSEDFAVYYCQQSWSHPTTFGGGTKVEIK | 8.5
CL-2C mAb 14 (antibody, V domains shown, also called VK50H94H + VH33H100AH) VH: QVQLVQSGAEVMKPGSSVKVSCKASGYTFSWYHLEWVRQAPGHGLEWMGEIDPGTFTTNYNEKFKARVTFTADTSTSTAYMELSSLRSEDTAVYYCARFSHFSGHNYDYFDYWGQGTLVTVSS VL: EIVMTQSPATLSVSPGERATLSCRASQSIGTNIHWYQQKPGQAPRLLIYHASESISGIPARFSGSGSGTEFTLTISSLQSEDFAVYYCQQSWSHPTTFGGGTKVEIK | 3.2
CL-2C mAb 19 (antibody, V domains shown, also called VK50H92D94H + VH33H100AH) VH: QVQLVQSGAEVMKPGSSVKVSCKASGYTFSWYHLEWVRQAPGHGLEWMGEIDPGTFTTNYNEKFKARVTFTADTSTSTAYMELSSLRSEDTAVYYCARFSHFSGHNYDYFDYWGQGTLVTVSS VL: EIVMTQSPATLSVSPGERATLSCRASQSIGTNIHWYQQKPGQAPRLLIYHASESISGIPARFSGSGSGTEFTLTISSLQSEDFAVYYCQQSDSHPTTFGGGTKVEIK | 5.2
CL-2C mAb 11 (antibody, V domains shown, also called VK50H94H + VH58H100BH) VH: QVQLVQSGAEVMKPGSSVKVSCKASGYTFSWYWLEWVRQAPGHGLEWMGEIDPGTFTTHYNEKFKARVTFTADTSTSTAYMELSSLRSEDTAVYYCARFSHFSGSHYDYFDYWGQGTLVTVSS VL: EIVMTQSPATLSVSPGERATLSCRASQSIGTNIHWYQQKPGQAPRLLIYHASESISGIPARFSGSGSGTEFTLTISSLQSEDFAVYYCQQSWSHPTTFGGGTKVEIK | 6
CL-2C mAb 13 (antibody, V domains shown, also called VK50H94H + VH33H100BH) VH: QVQLVQSGAEVMKPGSSVKVSCKASGYTFSWYHLEWVRQAPGHGLEWMGEIDPGTFTTNYNEKFKARVTFTADTSTSTAYMELSSLRSEDTAVYYCARFSHFSGSHYDYFDYWGQGTLVTVSS VL: EIVMTQSPATLSVSPGERATLSCRASQSIGTNIHWYQQKPGQAPRLLIYHASESISGIPARFSGSGSGTEFTLTISSLQSEDFAVYYCQQSWSHPTTFGGGTKVEIK | 17.3
CL-2C mAb 10 (antibody, V domains shown, also called VK50H92D89H + VHWT) VH: QVQLVQSGAEVMKPGSSVKVSCKASGYTFSWYWLEWVRQAPGHGLEWMGEIDPGTFTTNYNEKFKARVTFTADTSTSTAYMELSSLRSEDTAVYYCARFSHFSGSNYDYFDYWGQGTLVTVSS VL: EIVMTQSPATLSVSPGERATLSCRASQSIGTNIHWYQQKPGQAPRLLIYHASESISGIPARFSGSGSGTEFTLTISSLQSEDFAVYYCHQSDSWPTTFGGGTKVEIK | 0.7
CL-2C mAb 9 (antibody, V domains shown, also called VK50H92D89H + VH33H100AH) VH: QVQLVQSGAEVMKPGSSVKVSCKASGYTFSWYHLEWVRQAPGHGLEWMGEIDPGTFTTNYNEKFKARVTFTADTSTSTAYMELSSLRSEDTAVYYCARFSHFSGHNYDYFDYWGQGTLVTVSS VL: EIVMTQSPATLSVSPGERATLSCRASQSIGTNIHWYQQKPGQAPRLLIYHASESISGIPARFSGSGSGTEFTLTISSLQSEDFAVYYCHQSDSWPTTFGGGTKVEIK | 2.5
CL-2C mAb 18 (antibody, V domains shown, also called VK50H92D94H + VH33H100BH) VH: QVQLVQSGAEVMKPGSSVKVSCKASGYTFSWYHLEWVRQAPGHGLEWMGEIDPGTFTTNYNEKFKARVTFTADTSTSTAYMELSSLRSEDTAVYYCARFSHFSGSHYDYFDYWGQGTLVTVSS VL: EIVMTQSPATLSVSPGERATLSCRASQSIGTNIHWYQQKPGQAPRLLIYHASESISGIPARFSGSGSGTEFTLTISSLQSEDFAVYYCQQSDSHPTTFGGGTKVEIK | 0.2
CL-2C mAb 4 (antibody, V domains shown, also called VK28H94H + VH33H100AH) VH: QVQLVQSGAEVMKPGSSVKVSCKASGYTFSWYHLEWVRQAPGHGLEWMGEIDPGTFTTNYNEKFKARVTFTADTSTSTAYMELSSLRSEDTAVYYCARFSHFSGHNYDYFDYWGQGTLVTVSS VL: EIVMTQSPATLSVSPGERATLSCRASQHIGTNIHWYQQKPGQAPRLLIYYASESISGIPARFSGSGSGTEFTLTISSLQSEDFAVYYCQQSWSHPTTFGGGTKVEIK | 3.3
CL-2C mAb 6 (antibody, V domains shown, also called VK50H92D89H + VH58H100BH) VH: QVQLVQSGAEVMKPGSSVKVSCKASGYTFSWYWLEWVRQAPGHGLEWMGEIDPGTFTTHYNEKFKARVTFTADTSTSTAYMELSSLRSEDTAVYYCARFSHFSGSHYDYFDYWGQGTLVTVSS VL: EIVMTQSPATLSVSPGERATLSCRASQSIGTNIHWYQQKPGQAPRLLIYHASESISGIPARFSGSGSGTEFTLTISSLQSEDFAVYYCHQSDSWPTTFGGGTKVEIK | 6.1
CL-2C mAb 5 (antibody, V domains shown, also called VK28H94H + VHWT) VH: QVQLVQSGAEVMKPGSSVKVSCKASGYTFSWYWLEWVRQAPGHGLEWMGEIDPGTFTTNYNEKFKARVTFTADTSTSTAYMELSSLRSEDTAVYYCARFSHFSGSNYDYFDYWGQGTLVTVSS VL: EIVMTQSPATLSVSPGERATLSCRASQHIGTNIHWYQQKPGQAPRLLIYYASESISGIPARFSGSGSGTEFTLTISSLQSEDFAVYYCQQSWSHPTTFGGGTKVEIK | 0.3
CL-2C mAb 7 (antibody, V domains shown, also called VK50H92D89H + VH33H100CH) VH: QVQLVQSGAEVMKPGSSVKVSCKASGYTFSWYHLEWVRQAPGHGLEWMGEIDPGTFTTNYNEKFKARVTFTADTSTSTAYMELSSLRSEDTAVYYCARFSHFSGSNHDYFDYWGQGTLVTVSS VL: EIVMTQSPATLSVSPGERATLSCRASQSIGTNIHWYQQKPGQAPRLLIYHASESISGIPARFSGSGSGTEFTLTISSLQSEDFAVYYCHQSDSWPTTFGGGTKVEIK | 7.9
CL-2C mAb 8 (antibody, V domains shown, also called VK50H92D89H + VH33H100BH) VH: QVQLVQSGAEVMKPGSSVKVSCKASGYTFSWYHLEWVRQAPGHGLEWMGEIDPGTFTTNYNEKFKARVTFTADTSTSTAYMELSSLRSEDTAVYYCARFSHFSGSHYDYFDYWGQGTLVTVSS VL: EIVMTQSPATLSVSPGERATLSCRASQSIGTNIHWYQQKPGQAPRLLIYHASESISGIPARFSGSGSGTEFTLTISSLQSEDFAVYYCHQSDSWPTTFGGGTKVEIK | 2.8
CL-2C mAb 12 (antibody, V domains shown, also called VK50H94H + VH33H100CH) VH: QVQLVQSGAEVMKPGSSVKVSCKASGYTFSWYHLEWVRQAPGHGLEWMGEIDPGTFTTNYNEKFKARVTFTADTSTSTAYMELSSLRSEDTAVYYCARFSHFSGSNHDYFDYWGQGTLVTVSS VL: EIVMTQSPATLSVSPGERATLSCRASQSIGTNIHWYQQKPGQAPRLLIYHASESISGIPARFSGSGSGTEFTLTISSLQSEDFAVYYCQQSWSHPTTFGGGTKVEIK | 3.9
CL-2C mAb 26 (antibody, V domains shown, also called VK50H + VH58H100BH) VH: QVQLVQSGAEVMKPGSSVKVSCKASGYTFSWYWLEWVRQAPGHGLEWMGEIDPGTFTTHYNEKFKARVTFTADTSTSTAYMELSSLRSEDTAVYYCARFSHFSGSHYDYFDYWGQGTLVTVSS VL: EIVMTQSPATLSVSPGERATLSCRASQSIGTNIHWYQQKPGQAPRLLIYHASESISGIPARFSGSGSGTEFTLTISSLQSEDFAVYYCQQSWSWPTTFGGGTKVEIK | 8.9
CL-2C mAb 20 (antibody, V domains shown, also called VK50H92D94H + VHWT) VH: QVQLVQSGAEVMKPGSSVKVSCKASGYTFSWYWLEWVRQAPGHGLEWMGEIDPGTFTTNYNEKFKARVTFTADTSTSTAYMELSSLRSEDTAVYYCARFSHFSGSNYDYFDYWGQGTLVTVSS VL: EIVMTQSPATLSVSPGERATLSCRASQSIGTNIHWYQQKPGQAPRLLIYHASESISGIPARFSGSGSGTEFTLTISSLQSEDFAVYYCQQSDSHPTTFGGGTKVEIK | 1.1
